# Laboratory results from US20090149339A1.
# Ends that are not written are not given here. * marks the point of attachment. Biotin = O=C1N[C@H]2[C@H](CS[C@H]2CCCCC(=O)*)N1
# Legend:
# [1] = target: GST-DLG1 PDZ domain fusion protein (human homolog of Drosophila discs large protein AA275-477; PDZ domains 1-2 of 3) (human) [GST: P08515]; assay: G assay, peptide titrated on immobilized GST-PDZ, saturation fit (apparent affinity)
# [2] = target: GST polypeptide alone (not a fusion protein) [GST: P08515]; assay: G assay, immobilized GST alone (background control)
# [3] = target: GST-PSD95 PDZ domain fusion protein (human post-synaptic density protein 95 AA387-724; PDZ domains 1-3 of 3) (human) [GST: P08515]; assay: G assay, peptide titrated on immobilized GST-PDZ, saturation fit (apparent affinity)
# [4] = target: GST-NeDLG PDZ domain fusion protein (presynaptic protein sao102, neuroendocrine-dlg; PDZ domains 1-2 of 3) [GST: P08515]; assay: as above
# Sequence of GST-NeDLG PDZ domain fusion protein (presynaptic protein sao102, neuroendocrine-dlg; PDZ domains 1-2 of 3) [GST: P08515] (P08515 1-218, tags or fused parts left off): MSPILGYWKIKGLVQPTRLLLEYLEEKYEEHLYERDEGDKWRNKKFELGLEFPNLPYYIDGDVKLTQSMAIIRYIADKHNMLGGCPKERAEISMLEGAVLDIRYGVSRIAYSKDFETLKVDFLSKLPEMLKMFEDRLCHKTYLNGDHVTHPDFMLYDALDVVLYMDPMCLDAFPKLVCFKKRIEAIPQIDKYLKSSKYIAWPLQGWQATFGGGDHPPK
# Sequence of GST-DLG1 PDZ domain fusion protein (human homolog of Drosophila discs large protein AA275-477; PDZ domains 1-2 of 3) (human) [GST: P08515] (P08515 1-218, tags or fused parts left off): as above
# Sequence of GST polypeptide alone (not a fusion protein) [GST: P08515] (P08515 whole entry, the tested form may be a part): as the sequence (P08515 1-218, tags or fused parts left off) above
# Sequence of GST-PSD95 PDZ domain fusion protein (human post-synaptic density protein 95 AA387-724; PDZ domains 1-3 of 3) (human) [GST: P08515] (P08515 1-218, tags or fused parts left off): as above
Binder,Kd [1] [µM],OD (binding to GST alone) [2] [OD units],Kd [3] [µM],Kd [4] [µM]
"Biotin-KDITSDSENSNFRNEIQSLV [CD95 (Apo-1/Fas) C-terminal PL peptide AA13L, biotinylated]",54,–,–,–
"ISGTPTSTMVHGMTSSSSVV (not fully specified) [CLASP-2 C-terminal PL peptide AA2L (C-terminal 20 amino acids), biotinylated]",–,< 0.2,45,7.5
